The text below walks through data of patent US20240199762A1 (PHILOGEN S P A, published 2024).

The target of experiment [1] is T1, human FAP-ECD (extracellular domain) recombinant fragment containing a C-terminal His6 tag (human, UniProt Q12884 26-760, randomly biotinylated with NHS ester-activated biotin (as used on the SA chip and Streptawell plates)).
T1 construct: also called biotinylated human FAP-ECD; biotinylated human FAP
T1 sequence: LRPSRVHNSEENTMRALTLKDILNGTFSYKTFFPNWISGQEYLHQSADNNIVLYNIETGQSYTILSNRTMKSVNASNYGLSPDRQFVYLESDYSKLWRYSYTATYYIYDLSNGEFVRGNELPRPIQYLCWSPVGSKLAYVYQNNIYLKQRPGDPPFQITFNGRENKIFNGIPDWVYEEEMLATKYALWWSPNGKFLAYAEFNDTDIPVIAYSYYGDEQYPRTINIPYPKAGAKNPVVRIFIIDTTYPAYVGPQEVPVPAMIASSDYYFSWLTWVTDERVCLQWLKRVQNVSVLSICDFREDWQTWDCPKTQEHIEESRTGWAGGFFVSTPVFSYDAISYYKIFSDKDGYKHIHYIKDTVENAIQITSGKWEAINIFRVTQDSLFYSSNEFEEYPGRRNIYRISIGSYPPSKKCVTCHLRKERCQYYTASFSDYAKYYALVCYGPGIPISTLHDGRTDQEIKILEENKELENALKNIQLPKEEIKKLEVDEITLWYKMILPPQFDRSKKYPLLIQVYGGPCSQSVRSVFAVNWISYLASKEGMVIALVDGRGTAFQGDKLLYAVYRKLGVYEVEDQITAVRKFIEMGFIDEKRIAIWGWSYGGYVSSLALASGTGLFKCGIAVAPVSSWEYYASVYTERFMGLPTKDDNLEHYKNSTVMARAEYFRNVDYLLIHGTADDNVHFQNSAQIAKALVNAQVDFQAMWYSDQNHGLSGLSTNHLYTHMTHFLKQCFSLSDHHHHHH
The experiment can be described thus: epitope ELISA on biotinylated human FAP, co-incubated with C5 IgG2a, 5 ug/mL. The method, then:
To evaluate binding, 100 nM of biotinylated human FAP were coated on Streptawell plates for 30 min at 37° C.
The C5 antibody in IgG2a format was incubated together with the 7NP2 antibody in IgG1 format, the F5 antibody in IgG1 format (WO2016/116399), the ESC11 antibody in IgG1 format (Fisher et al., (2012) Clin Cancer Res; 18(22)), or the (negative control) antibody KSF in IgG1 format for 1.5 h at room temperature at a concentration of 5 μg/mL in the antigen-coated wells. After 3 washes with PBS, binding of the antibodies to human FAP was detected using anti-human or anti-murine HRP conjugates (FIG. 7).

The target of experiment [2] is T2, human FAP expressed on transduced cells (SKRC52-hFAP, HT-1080-hFAP) (human, UniProt Q12884 1-760).
T2 construct: whole, on cells; Also the target in SKRC52-hFAP tumor cryosections and in tumors of tumor-bearing mice; also called cell-expressed human FAP
T2 sequence (looked up): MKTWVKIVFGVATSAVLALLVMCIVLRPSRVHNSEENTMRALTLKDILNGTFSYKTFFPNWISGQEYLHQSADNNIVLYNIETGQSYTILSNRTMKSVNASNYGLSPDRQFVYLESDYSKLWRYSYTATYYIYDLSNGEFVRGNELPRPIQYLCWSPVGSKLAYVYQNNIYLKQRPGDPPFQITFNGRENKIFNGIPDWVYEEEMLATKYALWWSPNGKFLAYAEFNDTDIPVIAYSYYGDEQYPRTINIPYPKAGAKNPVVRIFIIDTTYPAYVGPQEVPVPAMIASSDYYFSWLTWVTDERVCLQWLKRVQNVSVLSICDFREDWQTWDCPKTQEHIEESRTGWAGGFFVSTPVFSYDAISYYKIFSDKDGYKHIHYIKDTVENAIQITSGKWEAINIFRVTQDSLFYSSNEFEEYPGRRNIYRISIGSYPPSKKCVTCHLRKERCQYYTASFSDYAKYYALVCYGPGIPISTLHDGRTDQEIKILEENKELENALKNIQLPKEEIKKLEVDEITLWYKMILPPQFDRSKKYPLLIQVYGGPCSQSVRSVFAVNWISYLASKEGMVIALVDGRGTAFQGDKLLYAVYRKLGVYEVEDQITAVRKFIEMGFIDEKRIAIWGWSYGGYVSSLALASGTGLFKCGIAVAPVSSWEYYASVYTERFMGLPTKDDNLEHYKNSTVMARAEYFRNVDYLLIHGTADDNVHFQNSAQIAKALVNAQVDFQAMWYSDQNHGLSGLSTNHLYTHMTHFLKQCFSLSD
The experiment can be described thus: immunofluorescence on SKRC52-hFAP tumor cryosections, FITC conjugate. The method, then:
Immunofluorescence experiments were performed with 7NP2 and KSF (negative control), both in IgG1 format on cryosections of renal cell carcinoma SKRC52-hFAP tumor tissue slides, which were transduced to express human FAP. The 7NP2 and KSF IgG1 molecules were conjugated to FITC to allow detection. Cryostat sections (10 μm) were stained using the 7NP2 and KSF IgG1 conjugates at a final concentration of 10 μg/mL and detected with rabbit anti-FITC and goat anti-rabbit AlexaFluor488 antibody. Slides were mounted with fluorescent mounting medium and analyzed with a microscope (FIG. 5).

B1: anti-FAP antibody 7NP2 in IgG1 format (antibody, V domains shown)
VH: EVQLLESGGGLVQPGGSLRLSCAASGFTFSSYAMSWVRQAPGKGLEWVSAIGSVGGPTYYADSVKGRFTISRDNSKNTLYLQMNSLRAEDTAVYYCAKRLAWFDYWGQGTLVTVSS
VL: EIVLTQSPGTLSLSPGERATLSCRASQSVSSSYLAWYQQKPGQAPRLLIYGASSRATGIPDRFSGSGSGTDFTLTISRLEPEDFAVYYCQQSGKGPLTFGQGTKVEIKR
notes: also called 7NP2 IgG1; 7NP2(IgG1)
As to B1, in experiment [1], the binding result is given as “binds”.

B2: anti-hen egg lysozyme antibody KSF in IgG1 format (antibody, V domains shown)
VH: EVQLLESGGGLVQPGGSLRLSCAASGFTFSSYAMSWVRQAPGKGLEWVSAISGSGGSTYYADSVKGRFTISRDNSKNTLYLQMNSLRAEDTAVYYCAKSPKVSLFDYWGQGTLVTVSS
VL: SSELTQDPAVSVALGQTVRITCQGDSLRSYYASWYQQKPGQAPVLVIYGKNNRPSGIPDRFSGSSSGNTASLTITGAQAEDEADYYCQSSPLNRLAVVFGGGTKLTVLG
notes: Negative control; It was conjugated to FITC in the immunofluorescence and ex vivo experiments; also called KSF IgG1; KSF(IgG1)
In the case of B2, in experiment [2], the binding result is “no binding (tested: 10 µg/mL)”.
